Among the data in patent publication US20210130485A1 are pSyk levels in primary human microglial cells on polypeptide-coated plates (pSyk sandwich immunoassay) values, retold here.

The test has as its target FcγRs. The test can be described thus: cell-based or functional assay.

With “cis-LALA modified Fc polypeptide dimer fused to an anti-BACE1 Fab (bispecific antibody)”, the pSyk levels in primary human microglial cells on polypeptide-coated plates (pSyk sandwich immunoassay) was 3 fold.
